# Results reported in patent US10800847.
# Assays:
# [1] = biological target: HLA-Cw*1203 (Cw12) (human); assay: Luminex, iBeads (#6), 1:4
# [2] = biological target: HLA-Cw*1601 (Cw16) (human); assay: Luminex, iBeads (#6), 1:4
# [3] = biological target: HLA-Cw*0702 (Cw7) (human); assay: Luminex, iBeads (#6), 1:4
# [4] = biological target: HLA-Cw*0501 (Cw5) (human); assay: Luminex, iBeads (#6), 1:4
# [5] = biological target: HLA-Cw*1502 (Cw15) (human); assay: Luminex, iBeads (#6), 1:4
# [6] = biological target: Albumin (negative control beads) (human or bovine); assay: Luminex, iBeads (#6), 1:4
# [7] = biological target: HLA-Cw*0102 (Cw1) (human); assay: Luminex, iBeads (#6), 1:4
# [8] = biological target: HLA-Cw*0304 (Cw10) (human); assay: Luminex, iBeads (#6), 1:4
# [9] = biological target: HLA-Cw*1701 (Cw17) (human); assay: Luminex, iBeads (#6), 1:4
# [10] = biological target: HLA-Cw*0401 (Cw4) (human); assay: Luminex, iBeads (#6), 1:4
# [11] = biological target: HLA-Cw*0202 (Cw2) (human); assay: Luminex, iBeads (#6), 1:4
# [12] = biological target: HLA-Cw*0602 (Cw6) (human); assay: Luminex, iBeads (#6), 1:4
# [13] = biological target: HLA-Cw*0302 (Cw10) (human); assay: Luminex, iBeads (#6), 1:4
# [14] = biological target: HLA-Cw*0303 (Cw9) (human); assay: Luminex, iBeads (#6), 1:4
# [15] = biological target: HLA-A*3402 (A34) single antigen on beads (human); assay: Luminex iBeads (#6), IVIg 1:4
# [16] = biological target: HLA-A*6601 (A66) single antigen on beads (human); assay: Luminex iBeads (#6), IVIg 1:4
# [17] = biological target: HLA-A*3601 (A36) single antigen on beads (human); assay: Luminex iBeads (#6), IVIg 1:4
# [18] = biological target: HLA-A*3001 (A30) single antigen on beads (human); assay: Luminex iBeads (#6), IVIg 1:4
# [19] = biological target: HLA-A*3301 (A33) single antigen on beads (human); assay: Luminex iBeads (#6), IVIg 1:4
# [20] = biological target: HLA-A*4301 (A43) single antigen on beads (human); assay: Luminex iBeads (#6), IVIg 1:4
# [21] = biological target: HLA-A*3303 (A33) single antigen on beads (human); assay: Luminex iBeads (#6), IVIg 1:4
# [22] = biological target: HLA-A*7401 (A74) single antigen on Luminex beads (human); assay: Luminex single antigen bead assay, regular beads (#7), IVIg 1:4
# [23] = biological target: HLA-A*6901 (A69) single antigen on Luminex beads (human); assay: as above
# [24] = biological target: HLA-B*4501 (B45) single antigen on Luminex beads (human); assay: Luminex single antigen, iBead vs regular bead, IVIg 1:8
# [25] = biological target: HLA-B*3701 (B37) single antigen on Luminex beads (human); assay: as above
# [26] = biological target: HLA-B*4006 (B61) single antigen on Luminex beads (human); assay: as above
# [27] = biological target: HLA-B*2708 (B27) single antigen on Luminex beads (human); assay: as above
# [28] = biological target: HLA-B*3501 (B35) single antigen on Luminex beads (human); assay: as above
# [29] = biological target: HLA-B*4001 (B60) single antigen on Luminex beads (human); assay: as above
# [30] = biological target: HLA-B*2705 (B27) single antigen on Luminex beads (human); assay: as above
# [31] = biological target: HLA-B*3901 (B39) single antigen on Luminex beads (human); assay: as above
# [32] = biological target: HLA-B*4701 (B47) single antigen on Luminex beads (human); assay: as above
# [33] = biological target: HLA-B*4403 (B44) single antigen on Luminex beads (human); assay: as above
# [34] = biological target: HLA-B*3801 (B38) single antigen on Luminex beads (human); assay: as above
# [35] = biological target: HLA-B*4201 (B42) single antigen on Luminex beads (human); assay: as above
# [36] = biological target: HLA-B*4402 (B44) single antigen on Luminex beads (human); assay: as above
# [37] = biological target: HLA-B*4002 (B61) single antigen on Luminex beads (human); assay: as above
# [38] = biological target: HLA-B*4101 (B41) single antigen on Luminex beads (human); assay: as above
# [39] = biological target: HLA-B*2708 (B27) single antigen on Luminex beads (human); assay: Luminex single antigen, regular beads (#7), IVIg 1:8
# [40] = biological target: HLA-B*2705 (B27) single antigen on Luminex beads (human); assay: as above
# [41] = biological target: HLA-B*4701 (B47) single antigen on Luminex beads (human); assay: as above
# [42] = biological target: HLA-B*4201 (B42) single antigen on Luminex beads (human); assay: as above
# [43] = biological target: HLA-B*4101 (B41) single antigen on Luminex beads (human); assay: as above
# [44] = biological target: HLA-B*4601 (B46) single antigen on Luminex beads (human); assay: as above
substance,measurement,setting,value
"IVIg Sandoglobulin (Novartis, Basel, Switzerland) (antibody)",MFI,[1],636 MFI
same,MFI,[2],613 MFI
same,MFI,[3],746 MFI
same,MFI,[4],710 MFI
same,MFI,[5],458 MFI
same,MFI,[6],667 MFI
same,MFI,[7],511 MFI
same,MFI,[8],520 MFI
same,MFI,[9],1050 MFI
same,MFI,[10],601 MFI
same,MFI,[11],719 MFI
same,MFI,[12],627 MFI
same,MFI,[13],522 MFI
same,MFI,[14],500 MFI
same,MFI,[15],177 MFI
same,MFI,[16],783 MFI
same,MFI,[17],636 MFI
same,MFI,[18],540 MFI
same,MFI,[19],684 MFI
same,MFI,[20],949 MFI
same,MFI,[21],439 MFI
same,MFI,[22],0 MFI
same,MFI,[23],470 MFI
"Octagam (IVIg, Octapharma, Lachen, Switzerland) (antibody)",Difference % (iBead against regular bead MFI),[24],-68%
same,Difference % (iBead against regular bead MFI),[25],-100%
same,Difference % (iBead against regular bead MFI),[26],-97%
same,Difference % (iBead against regular bead MFI),[27],-100%
same,Difference % (iBead against regular bead MFI),[28],-100%
same,Difference % (iBead against regular bead MFI),[29],-100%
same,Difference % (iBead against regular bead MFI),[30],-100%
same,Difference % (iBead against regular bead MFI),[31],0%
same,Difference % (iBead against regular bead MFI),[32],-57%
same,Difference % (iBead against regular bead MFI),[33],-39%
same,Difference % (iBead against regular bead MFI),[34],-100%
same,Difference % (iBead against regular bead MFI),[35],-100%
same,Difference % (iBead against regular bead MFI),[36],-82%
same,Difference % (iBead against regular bead MFI),[37],-100%
same,Difference % (iBead against regular bead MFI),[38],-100%
same,MFI,[39],54 MFI
same,MFI,[40],154 MFI
same,MFI,[41],2200 MFI
same,MFI,[42],364 MFI
same,MFI,[43],393 MFI
same,MFI,[44],2440 MFI
